Results as given in patent US20230165967A1 (TAE LIFE SCIENCES, published 2023).

Experiments:
[1] = target: T1, recombinant human soluble ECD of CD64/FCGRIA (human, UniProt P12314 16-292); test: ELISA: plate coated with recombinant human CD64/FCGRIA ECD, antibody titrated, HRP goat anti-human Fc, OD650
T1 construct: extracellular domain; also called FcγRI
Procedure: FcγRI binding was evaluated using an enzyme linked immunoassay (ELISA). Briefly, 96-well ELISA plates were coated with recombinant human soluble ECD of CD64/FCGRIA (Sino Biological, Inc. Beijing, China) in 1×PBS (pH7.4) coating buffer. Subsequently the plates were washed and blocked with ELISA blocking buffer. […] After washing to remove unbound antibodies, the bound antibodies were detected with horseradish peroxidase (HRP) conjugated goat anti-human Fc-specific polyclonal antibody (Jackson ImmunoResearch, West Grove, Pa.). After washing to remove the unbound detection antibody, a slow kinetic substrate solution of tetramethylbenzidine (TMB) was added to the wells where color develops in proportion to the amount of testing samples. The optical density (OD) of the color was measured at 650 nm and was used for determination of the amount of testing samples bound to FcγRI. Detectable binding of antibodies over the range of test concentrations was analyzed using the one-site binding, nonlinear regression analysis with GraphPad Prism.

[2] = target: recombinant human FcRn (Sino Biological) (human, UniProt P55899 24-297; P61769 21-119); test: ELISA at pH 6.0: plate coated with recombinant human FcRn, antibody titrated, HRP goat anti-human Fc, OD650
Procedure: FcRn binding was evaluated using an enzyme linked immunoassay (ELISA). Briefly, 96-well ELISA plates were coated with of recombinant human FcRn (Sino Biological, Inc, Beijing, China) in 1×PBS (pH 6.0) coating buffer. Subsequently, the plates were washed and blocked with ELISA blocking buffer. […] After washing to remove unbound antibodies, the bound antibodies were detected with horseradish peroxidase (HRP) conjugated goat anti-human Fc-specific polyclonal antibody (Jackson ImmunoResearch, West Grove, Pa.). After washing to remove unbound detection antibody, a slow kinetic substrate solution of tetramethylbenzidine (TMB) was added to the wells where color develops in proportion to the amount of testing samples. The optical density (OD) of the color was measured at 650 nm and was used for determination of the amount of testing samples bound to FcRn. Detectable binding of antibodies over the range of test concentrations was analyzed using the one-site binding, nonlinear regression analysis with GraphPad Prism.

[3] = target: T2, recombinant human soluble ECD of hCD16a/FCGRIIIA (human, UniProt P08637 17-208); test: ELISA: plate coated with recombinant human CD16a/FCGRIIIA ECD, antibody titrated 0.005-80 ug/ml, HRP goat anti-human Fc, OD650
T2 construct: extracellular domain; also called FcγRIIIa
T2 sequence (P08637 17-208): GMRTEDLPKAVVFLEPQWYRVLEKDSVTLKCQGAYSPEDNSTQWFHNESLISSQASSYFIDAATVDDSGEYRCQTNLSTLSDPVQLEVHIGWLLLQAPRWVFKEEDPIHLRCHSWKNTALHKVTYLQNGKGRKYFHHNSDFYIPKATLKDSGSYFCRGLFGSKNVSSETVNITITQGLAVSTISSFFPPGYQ
Procedure: FcγRIIIa binding was evaluated using an enzyme linked immunoassay (ELISA). Briefly, 96-well ELISA plates were coated with of recombinant human soluble ECD of hCD16a/[sequence] (Sino Biological, Inc, Beijing, China) in 1×PBS (pH7.4) coating buffer. Subsequently the plates were washed and blocked with ELISA blocking buffer. […] After washing to remove unbound antibodies, the bound antibodies were detected with horseradish peroxidase (HRP) conjugated goat anti-human Fc-specific polyclonal antibody (Jackson ImmunoResearch, West Grove, Pa.). After washing to remove unbound detection antibody, a slow kinetic substrate solution of tetramethylbenzidine (TMB) was added to the wells where color develops in proportion to the amount of testing samples. The optical density (OD) of the color was measured at 650 nm and was used for determination of the amount of testing samples bound to FcγRIIa. Detectable binding of antibodies over the range of test concentrations was analyzed using the one-site binding, nonlinear regression analysis with GraphPad Prism.

[4] = target: human C1q (sigma Cat #C1740) (human, UniProt P02745 23-245; P02746 28-253; P02747 29-245); test: ELISA: plate coated with antibody at 1 ug/ml, human C1q titrated 0.625-40 ug/ml, rabbit anti-human C1q then HRP goat anti-rabbit, OD650
Sequence of human C1q (sigma Cat #C1740) (P02745 23-245 limits assumed, chain 1 of 3): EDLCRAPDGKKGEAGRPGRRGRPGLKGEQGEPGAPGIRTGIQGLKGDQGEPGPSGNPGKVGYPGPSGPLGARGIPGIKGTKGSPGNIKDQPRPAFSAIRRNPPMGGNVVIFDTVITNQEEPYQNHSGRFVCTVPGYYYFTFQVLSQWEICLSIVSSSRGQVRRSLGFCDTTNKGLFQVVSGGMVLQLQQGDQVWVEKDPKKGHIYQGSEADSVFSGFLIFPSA
Sequence of human C1q (sigma Cat #C1740) (P02746 28-253 limits assumed, chain 2 of 3): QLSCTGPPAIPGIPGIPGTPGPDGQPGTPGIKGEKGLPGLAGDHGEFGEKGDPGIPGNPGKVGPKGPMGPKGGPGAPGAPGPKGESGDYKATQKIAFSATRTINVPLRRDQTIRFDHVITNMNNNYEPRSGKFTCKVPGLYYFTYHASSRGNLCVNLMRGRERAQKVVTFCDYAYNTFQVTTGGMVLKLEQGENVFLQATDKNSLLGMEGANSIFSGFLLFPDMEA
Sequence of human C1q (sigma Cat #C1740) (P02747 29-245 limits assumed, chain 3 of 3): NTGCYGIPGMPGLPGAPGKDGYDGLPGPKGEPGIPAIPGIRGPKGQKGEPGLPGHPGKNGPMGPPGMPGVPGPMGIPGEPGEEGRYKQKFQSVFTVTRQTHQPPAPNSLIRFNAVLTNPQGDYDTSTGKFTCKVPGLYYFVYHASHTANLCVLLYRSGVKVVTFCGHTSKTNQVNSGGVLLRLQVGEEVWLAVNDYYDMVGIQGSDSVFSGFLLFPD
Procedure: Subsequently the plates were washed and blocked with ELISA blocking buffer (PBS containing 1% BSA). […] A slow kinetic substrate solution of tetramethylbenzidine (TMB) was added and the optical density (OD) of the color was measured at 650 nm. The data representing detectable binding of antibodies over the range of test concentrations was analyzed by one-site binding nonlinear regression analysis using GraphPad Prism software.

T1 sequence (P12314 16-292): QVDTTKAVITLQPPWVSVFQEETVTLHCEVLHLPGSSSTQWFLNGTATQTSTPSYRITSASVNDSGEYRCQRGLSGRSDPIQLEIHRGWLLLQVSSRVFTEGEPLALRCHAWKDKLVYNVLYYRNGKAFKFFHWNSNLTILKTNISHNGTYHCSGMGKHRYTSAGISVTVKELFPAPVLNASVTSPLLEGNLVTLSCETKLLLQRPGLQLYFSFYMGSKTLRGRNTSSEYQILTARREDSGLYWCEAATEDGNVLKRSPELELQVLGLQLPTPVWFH

binding result [1]: no binding (tested: 30 ug/ml)
binding result [2]: binds
binding result [3]: no binding (tested: 80 ug/ml)
binding result [4]: binds
B1: Anti-EGFR Ab No. 1 L234A, L235A, L328C (antibody, human IgG1, kappa, L234A L235A)
heavy: QVQLQESGPGLVKPSETLSLTCTVSGGSVSSGDYYWTWIRQSPGKGLEWIGHIYYSGNTNYNPSLKSRLTISIDTSKTQFSLKLSSVTAADTAIYYCVRDRVTGAFDIWGQGTMVTVSSASTKGPSVFPLAPSSKSTSGGTAALGCLVKDYFPEPVTVSWNSGALTSGVHTFPAVLQSSGLYSLSSVVTVPSSSLGTQTYICNVNHKPSNTKVDKKVEPKSCDKTHTCPPCPAPEAAGGPSVFLFPPKPKDTLMISRTPEVTCVVVDVSHEDPEVKFNWYVDGVEVHNAKTKPREEQYNSTYRVVSVLTVLHQDWLNGKEYKCKVSNKACPAPIEKTISKAKGQPREPQVYTLPPSREEMTKNQVSLTCLVKGFYPSDIAVEWESNGQPENNYKTTPPVLDSDGSFFLYSKLTVDKSRWQQGNVFSCSVMHEALHNHYTQKSLSLSPGK
light: not shown
notes: Fc variant; wild-type light chain; also called Anti-EGFR Mab No. 1 triple mutant; triple mutation L234A, L235A, and L328C
